The text below walks through data of the MegaScale stability set (Tsuboyama et al. 2023).

B1: EEHEE_rd3_0130 (parent)
chain: TKIIVNGKTFTAPTEEEAQKIAEKLAKKAGLTVHKKNGTFELK

This series covers variants of B1. As to the kind of experiment: folding stability dG (cDNA display proteolysis); higher = more stable. As to conditions: PBS, room temperature.
In the case of TKIRVNGKTFTAPTEEEAQKIAEKLAKKAGLTVHKKNGTFELK [I4R], the “folding stability dG” value was 0.615 kcal/mol.

Turning to TKIYVNGKTFTAPTEEEAQKIAEKLAKKAGLTVHKKNGTFELK [I4Y], the “folding stability dG” value turned out to be 0.689 kcal/mol.

As to TKIVVNGKTFTAPTEEEAQKIAEKLAKKAGLTVHKKNGTFELK [I4V], the “folding stability dG” value was 0.695 kcal/mol.

As to TKITVNGKTFTAPTEEEAQKIAEKLAKKAGLTVHKKNGTFELK [I4T], the “folding stability dG” value worked out at 0.449 kcal/mol.

Take TKISVNGKTFTAPTEEEAQKIAEKLAKKAGLTVHKKNGTFELK [I4S]: the “folding stability dG” value was determined as 0.124 kcal/mol.

On to TKIWVNGKTFTAPTEEEAQKIAEKLAKKAGLTVHKKNGTFELK [I4W], for which the “folding stability dG” value was found to be 0.365 kcal/mol.

As for TKIIVNFKTFTAPTEEEAQKIAEKLAKKAGLTVHKKNGTFELK [G7F], the “folding stability dG” value came out at 0.265 kcal/mol.

In the case of TKIIVNLKTFTAPTEEEAQKIAEKLAKKAGLTVHKKNGTFELK [G7L], the “folding stability dG” value was -0.186 kcal/mol.

As for TKIIVNCKTFTAPTEEEAQKIAEKLAKKAGLTVHKKNGTFELK [G7C], the “folding stability dG” value was found to be 0.961 kcal/mol.

Take TKIIVNKKTFTAPTEEEAQKIAEKLAKKAGLTVHKKNGTFELK [G7K]: the “folding stability dG” value worked out at 0.029 kcal/mol.

For TKIIVNDKTFTAPTEEEAQKIAEKLAKKAGLTVHKKNGTFELK [G7D], the “folding stability dG” value is -0.326 kcal/mol.

As for TKIIVNHKTFTAPTEEEAQKIAEKLAKKAGLTVHKKNGTFELK [G7H], the “folding stability dG” value is 0.106 kcal/mol.

Regarding TKIIVNQKTFTAPTEEEAQKIAEKLAKKAGLTVHKKNGTFELK [G7Q], the “folding stability dG” value amounted to 0.025 kcal/mol.

With TKIIVNMKTFTAPTEEEAQKIAEKLAKKAGLTVHKKNGTFELK [G7M], the “folding stability dG” value is -0.071 kcal/mol.

Consider TKIIVNEKTFTAPTEEEAQKIAEKLAKKAGLTVHKKNGTFELK [G7E], for which the “folding stability dG” value was -0.721 kcal/mol.

For TKIIVNAKTFTAPTEEEAQKIAEKLAKKAGLTVHKKNGTFELK [G7A], the “folding stability dG” value stood at 0.007 kcal/mol.

As for TKIIVNNKTFTAPTEEEAQKIAEKLAKKAGLTVHKKNGTFELK [G7N], the “folding stability dG” value worked out at 0.208 kcal/mol.

With TKIIVNIKTFTAPTEEEAQKIAEKLAKKAGLTVHKKNGTFELK [G7I], the “folding stability dG” value was -0.201 kcal/mol.

For TKIIVNRKTFTAPTEEEAQKIAEKLAKKAGLTVHKKNGTFELK [G7R], the “folding stability dG” value was 0.021 kcal/mol.

For TKIIVNPKTFTAPTEEEAQKIAEKLAKKAGLTVHKKNGTFELK [G7P], the “folding stability dG” value was -0.749 kcal/mol.

As to TKIIVNSKTFTAPTEEEAQKIAEKLAKKAGLTVHKKNGTFELK [G7S], the “folding stability dG” value is -0.025 kcal/mol.

Take TKIIVFGKTFTAPTEEEAQKIAEKLAKKAGLTVHKKNGTFELK [N6F]: the “folding stability dG” value worked out at 1.61 kcal/mol.

As to TKIIVKGKTFTAPTEEEAQKIAEKLAKKAGLTVHKKNGTFELK [N6K], the “folding stability dG” value is 0.266 kcal/mol.

TKIIVCGKTFTAPTEEEAQKIAEKLAKKAGLTVHKKNGTFELK [N6C]: the “folding stability dG” value was 2.05 kcal/mol.

Turning to TKIIVYGKTFTAPTEEEAQKIAEKLAKKAGLTVHKKNGTFELK [N6Y], the “folding stability dG” value is 1.42 kcal/mol.

On to TKIIVTGKTFTAPTEEEAQKIAEKLAKKAGLTVHKKNGTFELK [N6T], for which the “folding stability dG” value was -0.318 kcal/mol.

As to TKIIVGGKTFTAPTEEEAQKIAEKLAKKAGLTVHKKNGTFELK [N6G], the “folding stability dG” value was 1.02 kcal/mol.

Regarding TKIIVWGKTFTAPTEEEAQKIAEKLAKKAGLTVHKKNGTFELK [N6W], the “folding stability dG” value worked out at 1.47 kcal/mol.

Take TKIIVRGKTFTAPTEEEAQKIAEKLAKKAGLTVHKKNGTFELK [N6R]: the “folding stability dG” value was 0.555 kcal/mol.

Turning to TKIIVAGKTFTAPTEEEAQKIAEKLAKKAGLTVHKKNGTFELK [N6A], the “folding stability dG” value stood at 0.745 kcal/mol.

In the case of TKIIVIGKTFTAPTEEEAQKIAEKLAKKAGLTVHKKNGTFELK [N6I], the “folding stability dG” value stood at 0.222 kcal/mol.

For the variant TKIIVPGKTFTAPTEEEAQKIAEKLAKKAGLTVHKKNGTFELK [N6P], the “folding stability dG” value is -0.076 kcal/mol.

Take TKIIVEGKTFTAPTEEEAQKIAEKLAKKAGLTVHKKNGTFELK [N6E]: the “folding stability dG” value amounted to 0.325 kcal/mol.

For the variant TKIIVHGKTFTAPTEEEAQKIAEKLAKKAGLTVHKKNGTFELK [N6H], the “folding stability dG” value amounted to 0.793 kcal/mol.

As to TKIIVQGKTFTAPTEEEAQKIAEKLAKKAGLTVHKKNGTFELK [N6Q], the “folding stability dG” value was determined as 0.329 kcal/mol.

For the variant TKIIVDGKTFTAPTEEEAQKIAEKLAKKAGLTVHKKNGTFELK [N6D], the “folding stability dG” value came out at 0.319 kcal/mol.

With TKIIVVGKTFTAPTEEEAQKIAEKLAKKAGLTVHKKNGTFELK [N6V], the “folding stability dG” value is -0.097 kcal/mol.

On to TKIIVLGKTFTAPTEEEAQKIAEKLAKKAGLTVHKKNGTFELK [N6L], for which the “folding stability dG” value was found to be 0.861 kcal/mol.

Regarding TKIIVSGKTFTAPTEEEAQKIAEKLAKKAGLTVHKKNGTFELK [N6S], the “folding stability dG” value is 0.36 kcal/mol.

Turning to TKIIVMGKTFTAPTEEEAQKIAEKLAKKAGLTVHKKNGTFELK [N6M], the “folding stability dG” value came out at 0.863 kcal/mol.

With TKIIRNGKTFTAPTEEEAQKIAEKLAKKAGLTVHKKNGTFELK [V5R], the “folding stability dG” value is -0.49 kcal/mol.

As for TKIIDNGKTFTAPTEEEAQKIAEKLAKKAGLTVHKKNGTFELK [V5D], the “folding stability dG” value is -0.878 kcal/mol.

In the case of TKIITNGKTFTAPTEEEAQKIAEKLAKKAGLTVHKKNGTFELK [V5T], the “folding stability dG” value was -0.197 kcal/mol.

On to TKIIKNGKTFTAPTEEEAQKIAEKLAKKAGLTVHKKNGTFELK [V5K], for which the “folding stability dG” value is -0.361 kcal/mol.

Turning to TKIIMNGKTFTAPTEEEAQKIAEKLAKKAGLTVHKKNGTFELK [V5M], the “folding stability dG” value came to 0.826 kcal/mol.

For the variant TKIISNGKTFTAPTEEEAQKIAEKLAKKAGLTVHKKNGTFELK [V5S], the “folding stability dG” value was -0.322 kcal/mol.

On to TKIIWNGKTFTAPTEEEAQKIAEKLAKKAGLTVHKKNGTFELK [V5W], for which the “folding stability dG” value worked out at 1.48 kcal/mol.

Take TKIIINGKTFTAPTEEEAQKIAEKLAKKAGLTVHKKNGTFELK [V5I]: the “folding stability dG” value came out at 1.13 kcal/mol.

For TKIIYNGKTFTAPTEEEAQKIAEKLAKKAGLTVHKKNGTFELK [V5Y], the “folding stability dG” value amounted to 1.4 kcal/mol.

In the case of TKIIPNGKTFTAPTEEEAQKIAEKLAKKAGLTVHKKNGTFELK [V5P], the “folding stability dG” value was -0.548 kcal/mol.

Regarding TKIIANGKTFTAPTEEEAQKIAEKLAKKAGLTVHKKNGTFELK [V5A], the “folding stability dG” value was found to be 0.171 kcal/mol.

Take TKIIFNGKTFTAPTEEEAQKIAEKLAKKAGLTVHKKNGTFELK [V5F]: the “folding stability dG” value worked out at 1.31 kcal/mol.

On to TKIICNGKTFTAPTEEEAQKIAEKLAKKAGLTVHKKNGTFELK [V5C], for which the “folding stability dG” value is 1.63 kcal/mol.

With TKIIGNGKTFTAPTEEEAQKIAEKLAKKAGLTVHKKNGTFELK [V5G], the “folding stability dG” value was -0.75 kcal/mol.

With TKIILNGKTFTAPTEEEAQKIAEKLAKKAGLTVHKKNGTFELK [V5L], the “folding stability dG” value stood at 0.73 kcal/mol.

For the variant TKIINNGKTFTAPTEEEAQKIAEKLAKKAGLTVHKKNGTFELK [V5N], the “folding stability dG” value was -0.497 kcal/mol.

Regarding TKIIQNGKTFTAPTEEEAQKIAEKLAKKAGLTVHKKNGTFELK [V5Q], the “folding stability dG” value was -0.462 kcal/mol.

Consider TKIIHNGKTFTAPTEEEAQKIAEKLAKKAGLTVHKKNGTFELK [V5H], for which the “folding stability dG” value is 0.397 kcal/mol.

For TKIIENGKTFTAPTEEEAQKIAEKLAKKAGLTVHKKNGTFELK [V5E], the “folding stability dG” value is -0.633 kcal/mol.
